Experimental data taken from patent publication US20190091326A1.

Experiments:
[1] = molecular target: JRFL-E168K V1/V2 scaffold, engineered, gD-tagged, produced in normal 293 HEK cells (herpes simplex virus 1; HIV-1 isolate JRFL); assay: ELISA; table row JRFL-E168K V1/V2.eng1*, column 293
[2] = molecular target: ZM233 V1/V2 scaffold, wildtype, gD-tagged, produced in GnTI- 293 HEK cells (herpes simplex virus 1; HIV-1 isolate ZM233); assay: ELISA; table row ZM233 V1/V2 wt, GnTI-
[3] = molecular target: MN V1/V2 scaffold, wildtype, gD-tagged, produced in normal 293 HEK cells (herpes simplex virus 1; HIV-1 isolate MN) (UniProt Q69091); assay: ELISA; table row MN V1/V2 wt, column 293
[4] = molecular target: 108060-I169K V1/V2 scaffold, gD-tagged, produced in normal 293 HEK cells (herpes simplex virus 1; HIV-1 isolate 108060); assay: ELISA; table row 108060 V1/V2 I169K, column 293
[5] = molecular target: A244 V1/V2 scaffold, engineered, Strep-tag/6x Histidine-tag, produced in normal 293 cells (HIV-1 isolate A244); assay: SPR (Biacore 3000), PG9 captured by anti-human Fc, scaffold flowed, 1:1 Langmuir fit
[6] = molecular target: MN V1/V2 scaffold, mutant, Strep-tag/6x Histidine-tag, expressed in 293F cells (HIV-1 isolate MN) (UniProt P05877); assay: as above
[7] = molecular target: ZM233 V1/V2 scaffold, engineered, Strep-tag/6x Histidine-tag, expressed in normal 293 cells (HIV-1 isolate ZM233); assay: as above
[8] = molecular target: 108060 V1/V2 scaffold, mutant, Strep-tag/6x Histidine-tag, expressed in 293F cells (HIV-1 isolate 108060); assay: as above
[9] = molecular target: 108060 I169K/E172V/T161M/N156I V1/V2 scaffold, gD-tagged, produced in normal 293 HEK cells (herpes simplex virus 1; HIV-1 isolate 108060); assay: ELISA; table row 108060 I169K/E172V/T161M/N156I, column 293
ZM109 V1/V2 wt (293) = assay: ELISA; table row ZM109 V1/V2 wt, column 293
[10] = molecular target: 108060 I169K/E172V V1/V2 scaffold, gD-tagged, produced in normal 293 HEK cells (herpes simplex virus 1; HIV-1 isolate 108060); assay: ELISA; table row 108060 V1/V2 I169K/E172V, column 293
[11] = molecular target: 108060 I169K/E172V/T161M/N156I/S164G/D167G V1/V2 scaffold, gD-tagged, produced in normal 293 HEK cells (herpes simplex virus 1; HIV-1 isolate 108060); assay: ELISA; table row 108060 V1/V2.eng1*, column 293
[12] = molecular target: ZM233 V1/V2 scaffold, wildtype, gD-tagged, produced in normal 293 HEK cells (herpes simplex virus 1; HIV-1 isolate ZM233); assay: capture ELISA on 34.1 anti-gD; scaffold made in normal 293 cells
A244 V1/V2.eng1 (GnTI-) = assay: ELISA; table row A244 V1/V2.eng1*, GnTI-
[13] = molecular target: MN V1/V2 scaffold, engineered, gD-tagged, produced in GnTI- 293 HEK cells (herpes simplex virus 1; HIV-1 isolate MN); assay: ELISA; table row MN V1/V2.eng1*, GnTI-
[14] = molecular target: A244 V1/V2 scaffold, engineered, gD-tagged, produced in normal 293 HEK cells (herpes simplex virus 1; HIV-1 isolate A244) (UniProt Q69091); assay: capture ELISA on 34.1 anti-gD; purified scaffold made in 293 cells
[15] = molecular target: ZM233 V1/V2 scaffold, engineered, gD-tagged, produced in normal 293 HEK cells (herpes simplex virus 1; HIV-1 isolate ZM233); assay: as above
[16] = molecular target: 108060 I169K/E172V/T161M/N156I/S164G/D167G V1/V2 scaffold, gD-tagged, produced in normal 293 HEK cells (herpes simplex virus 1; HIV-1 isolate 108060); assay: as above
[17] = molecular target: JRFL-E168K V1/V2 scaffold, engineered, gD-tagged, produced in normal 293 HEK cells (herpes simplex virus 1; HIV-1 isolate JRFL); assay: as above
[18] = molecular target: MN V1/V2 scaffold, engineered, gD-tagged, produced in normal 293 HEK cells (herpes simplex virus 1; HIV-1 isolate MN); assay: as above
[19] = molecular target: A244 V1/V2 scaffold, wildtype (unmutated), Strep-tag/6x Histidine-tag, expressed in GnTI- cells (HIV-1 isolate A244); assay: SPR (Biacore 3000), PG9 captured by anti-human Fc at about 100 RU, scaffold flowed, 1:1 Langmuir fit
[20] = molecular target: ZM109 V1/V2 scaffold, wildtype, gD-tagged, produced in GnTI- 293 cells (herpes simplex virus 1; HIV-1 isolate ZM109); assay: ELISA; table row ZM109 V1/V2 wt, GnTI-
[21] = molecular target: MN V1/V2 scaffold, engineered, gD-tagged, produced in normal 293 HEK cells (herpes simplex virus 1; HIV-1 isolate MN); assay: ELISA; table row MN V1/V2.eng1*, column 293
[22] = molecular target: 108060 I169K/E172V/T161M/N156I/S164P/L165G V1/V2 scaffold, gD-tagged, produced in GnTI- 293 HEK cells (herpes simplex virus 1; HIV-1 isolate 108060); assay: ELISA; table row 108060 V1/V2.eng2**, GnTI-

For PG9 monoclonal antibody, the EC50 [1] was 0.0473 µg/mL, the EC50 [2] was 0.00951 µg/mL and the EC50 [3] was greater than 10 µg/mL. The EC50 [4] was greater than 10 µg/mL, the Kd [5] was 49 nM and the Kd [6] was 118 nM. For the same substance, the Kd [7] was 33 nM, the Kd [8] was 74 nM and the EC50 [9] was 0.599 µg/mL. The EC50 (ZM109 V1/V2 wt (293)) was 0.517 µg/mL, the EC50 [10] was greater than 10 µg/mL and the EC50 [11] was 0.093 µg/mL. It also gave an EC50 [12] of 0.0771 µg/mL, an EC50 (A244 V1/V2.eng1 (GnTI-)) of 0.00406 µg/mL and an EC50 [13] of 0.00796 µg/mL. It also gave an EC50 [14] of 0.0991 µg/mL, an EC50 [15] of 0.00227 µg/mL and an EC50 [16] of 0.093 µg/mL. It also gave an EC50 [17] of 0.0473 µg/mL, an EC50 [18] of 0.0274 µg/mL and a Kd [19] of 15 nM. It also gave an EC50 [20] of 0.0143 µg/mL, an EC50 [21] of 0.0274 µg/mL and an EC50 [22] of 0.00834 µg/mL.
